According to patent publication US20220401560A1, “PEPTIDE ENCAPSULATING FERRITIN” (Ajinomoto Co., Inc., priority 2019, published 2022):
No end group written: not given here.

Columns and labels:
ferritin (FTL) = target: T1, ferritin (FTL) (Homo sapiens, UniProt P02792); test: Encapsulation of fluorescent dye-modified peptide into FTL, column chromatography with absorbance at 480 nm; settings: absorbance at 480 nm at the position of the FTL peak
T1 construct: made in house; host or cells: Escherichia coli BL21 (DE3), plasmid pET20-FTL
Method: 0.5 mL of a 50 mM glycine hydrochloride buffer (pH 2.3) that contains FTL (chemical formula weight 480,466) at a final concentration of 5 mg/mL and the peptide at a final concentration of 0.5 mM, was left to stand at room temperature for 15 minutes. Next, 50 μL of a 1 M Tris hydrochloride buffer (pH 9.0) was added for neutralization, and the resulting solution was left to stand at room temperature for 3 hours. After the standing, the resulting solution was centrifuged (at 15,000 rpm for one minute). Then, the supernatant was collected and diluted with a 10 mM Tris hydrochloride buffer (pH 8) up to 3 mL in volume. The resulting solution was injected into the HiPrep 26/60 Sephacryl S-300 HR column (GE Healthcare Inc.) equilibrated with D-PBS (-) (Fujifilm Wako Pure Chemical Corporation) to separate and purify 24-mer FTL by size at a flow rate of 1.3 mL/minute. The purified ferritin was analyzed using a HIPrep 16/60 Sephacryl S-300 HR column (GE Healthcare Inc.) equilibrated with PBS at a flow rate of 0.5 mL/minute.

SKBR-3 cell = test: Cell incorporation observed with two-photon excitation fluorescence microscope; format: cell-based, human; settings: 24 hours, same conditions as FACS test
ferritin (FTH) [1] = target: T2, ferritin (FTH) (Homo sapiens, UniProt P02794); test: Search for peptides capable of being encapsulated into ferritin by disassembly/reassembly process, LC-MS detection; settings: encapsulation into ferritin (FTH); three trials
T2 construct: made in house; host or cells: Escherichia coli BL21 (DE3), plasmid pET20-FTH
Method: Peptides capable of being encapsulated into ferritin by disassembly/reassembly process were searched. In the disassembly/reassembly process, 1 mL of a 50 mM glycine hydrochloride buffer (pH 2.3) containing FTH at a final concentration of 5 mg/mL and the peptide at a final concentration of 0.5 mM, was left to stand at room temperature for 15 minutes. Next, 310 μL of a 1 M Tris hydrochloride buffer (pH 9.0) was added for neutralization, and left to stand at room temperature for 3 hours. After the standing, 1.2 mL of a 50 mM Tris hydrochloride buffer (pH 8.0) was added, and centrifuged (at 15,000 rpm for one minute). Thereafter, 2.5 mL of its supernatant was injected into a desalting column PD-10 (Sephadex G-25 filled product, GE Healthcare Inc.) equilibrated with a 50 mM Tris hydrochloride buffer (pH 8) for the elusion with 3.0 mL of a 50 mM Tris hydrochloride buffer (pH 8.0) to separate non-encapsulated peptides and ferritin. A whole amount (3.0 mL) of the resulting solution was concentrated to 0.1 mL by centrifugal ultrafiltration using Vivaspin 20-100K (GE Healthcare Inc.). The operation of adding 10 mL of a 50 mM Tris hydrochloride buffer to the concentrated solution and then concentrating was repeated twice to remove peptides that were not removed by PD-10 to obtain 0.1 mL of a sample solution. For the LC-MS analysis, 50 p1 of a 1 M glycine hydrochloride buffer (pH 2.3) was added to 50 μL of the sample solution and then the resulting solution was left to stand at room temperature for 15 minutes. To the solution, 900 μL of ethanol was added. Next, the resulting solution was stirred vigorously and then centrifuged (at 15,000 rpm for five minutes) for collection of the supernatant. The supernatant was analyzed using LCMS-2020 (Shimadzu Corporation) as LC-MS, Inertsil (Registered trademark) as a column, ODS-3, particle diameter of 2 μm and 2.1 mm×50 mm (GL science). Thereafter, 10 μL of the sample injected into the column was eluded at a flow rate of 0.2 mL/min for 10 minutes such that a mixing ratio of a solution A (0.1% formic acid/99.9% acetonitrile) and a solution B (50% water/50% acetonitrile) is from 95:5 to 95:5.
The encapsulation of the peptide into ferritin was studied by comparing in terms of the amount of the peptide detected by LC/MS between the sample prepared by encapsulating the peptide into ferritin at the disassembly/reassembly process and the sample prepared simply by mixing ferritin with the peptide. For example, ClAc-FHC was eluted at a retention time of 0.8 minute. […] However, the peak was not observed for the sample prepared by simply mixing the peptide with ferritin without performing the disassembly/reassembly process (FIG. 12B). FIG. 13 to FIG. 17 illustrate LC-MS results for FTH in which the peptide was encapsulated at the disassembly/reassembly process.

ferritin (FTH) [2] = target: T2, ferritin (FTH); test: Encapsulation of fluorescent dye-modified peptide into FTH, column chromatography with absorbance at 480 nm and LC-MS
Method: Of a 50 mM glycine hydrochloride buffer (pH 2.3) that contains FTH (chemical formula weight: 509,421) at a final concentration of 5 mg/mL and the peptide at a final concentration of 0.5 mM, 0.5 mL was left to stand at room temperature for 15 minutes. Next, 50 μL of a 1 M Tris hydrochloride buffer (pH 9.0) was added for neutralization, and the resulting solution was left to stand at room temperature for 3 hours. After the standing, the resulting solution was centrifuged (at 15,000 rpm for one minute). Then, the supernatant was collected and the volume was increased up to 3 mL with a 10 mM Tris hydrochloride buffer (pH 8). The resulting solution was injected into the HiPrep 26/60 Sephacryl S-300 HR column (GE Healthcare Inc.) equilibrated with a 10 mM Tris-HCl buffer (pH 8.0) to separate and purify 24-mer FTH by size at a flow rate of 1.3 mL/minute. The purified ferritin was analyzed using a HiPrep 16/60 Sephacryl S-300 HR column (GE Healthcare Inc.) equilibrated with a 10 mM Tris-HCl buffer (pH 8.0) at a flow rate of 0.5 mL/minute and confirmed as the absorbance at 480 nm unobservable from FTH only, at the same position as that of a peak of FTH.
The solution containing the FTH was concentrated to 0.25 mL by centrifugal ultrafiltration using Vivaspin 20-100K (GE Healthcare Inc.). […] For the LC-MS analysis, 50 μL of a 1 M glycine hydrochloride buffer (pH 2.3) was added to 50 μL of the sample solution and then the resulting solution was left to stand at room temperature for 15 minutes. To the solution 900 μL of ethanol was added. Next, the resulting solution was stirred vigorously and then centrifuged (at 15,000 rpm for five minutes) to collect its supernatant. The supernatant was analyzed using LCMS-2020 (Shimadzu Corporation) as LC-MS, inertsil (Registered trademark) ODS-3 with a particle diameter of 2 μm and 2.1 mm×50 mm (GL science) as a column. Into the column, 10 μL of the sample was injected, and eluded at a flow rate of 0.2 mL/min for 10 minutes such that a mixing ratio of a solution A (0.1% formic acid/99.9% acetonitrile) and a solution B (50% water/50% acetonitrile) was from 95:5 to 95:5. The concentration of the contained protein was determined using a protein assay CBB solution (Nacalai Tesque, Inc.) in terms of bovine albumin as a standard. The concentration of the encapsulated peptide was determined based on the absorbance at 480 nm of the fluorescent dye FAM to which PKC-F is modified.
First, the construction of FTH encapsulating two kinds of fluorescent dye-modified peptides [5(6)—FAM-[…] (SEQ ID NO: 10), FAM-SV40, chemical formula weight 1,516, and 5(6)—FAM-[…] […] (SEQ ID NO: 11), FAN-Np, chemical formula weight 384] was attempted. 0.5 mL of a 50 mM glycine hydrochloride buffer (pH 2.3) that contains FTH (chemical formula weight 509,421) at a final concentration of 5 mg/mL and a peptide at a final concentration of 0.5 mM, was left to stand at room temperature for 15 minutes. Next, 50 μL of a 1 M Tris hydrochloride buffer (pH 9.0) was added for neutralization, and the resulting solution was left to stand at room temperature for 3 hours. […] The absorbance at […] was confirmed at the same elusion position as that of ferritin 24-mer, for ferritin that was used for the operation to encapsulate FAM-SV40 therein. […] Next, the peptide amount of FAM-SV40 encapsulated in purified ferritin was quantified based on the 480 nm absorbance and by CBB staining with use of ferritin-amount-albumin as a standard.

T2 sequence (P02794 whole entry): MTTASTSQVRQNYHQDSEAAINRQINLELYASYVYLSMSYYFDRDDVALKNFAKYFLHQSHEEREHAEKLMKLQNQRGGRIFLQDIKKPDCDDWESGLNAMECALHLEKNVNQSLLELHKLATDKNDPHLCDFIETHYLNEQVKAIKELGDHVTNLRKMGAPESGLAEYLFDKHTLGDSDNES
T1 sequence (P02792 whole entry): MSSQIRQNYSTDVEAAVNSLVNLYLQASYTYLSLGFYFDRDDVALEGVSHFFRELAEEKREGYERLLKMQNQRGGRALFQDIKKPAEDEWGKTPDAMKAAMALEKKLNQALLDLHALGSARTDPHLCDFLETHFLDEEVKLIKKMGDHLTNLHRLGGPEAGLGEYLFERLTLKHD

Substance: 5(6)-FAM-RFARKGALRQKNVHEVKN (SEQ ID NO: 9) ({5(6)‑FAM}-RFARKGALRQKNVHEVKN) [PKC-F, fluorescent dye fluorescein (FAM)-modified peptide, linear]
- encapsulation of peptide in FTL (ferritin (FTL)): encapsulated in FTL
- incorporation into cells, fluorescence at the interior of cells (SKBR-3 cell): not confirmed
- encapsulation (ferritin (FTH) [1]): A (“A” represents peptides with three times of confirmation of encapsulation.)
- molecules of peptide encapsulated in one molecule of ferritin on average (ferritin (FTH) [2]; FTH, from molar ratio): 8.5 molecules
- encapsulation of peptide in FTH (ferritin (FTH) [2]; absorbance at 480 nm at elution position of 24-mer FTH, LC-MS): encapsulated by the ferritin encapsulation operation without being decomposed
